Data from patent US20210317213A1 (AMBRX, published 2021).

Tests used:
[1] = target: Folate receptor-alpha (FOLR1) (human) (UniProt P15328); test: cell binding, FOLRα-expressing KB cells; through the folate moiety
[2] = target: Folate receptor-alpha (FOLR1) (human) (UniProt P15328); test: summary table; cell binding through the folate moiety
[3] = target: T1, human CD3 (human, UniProt P07766 23-207); test: summary table; cell binding EC50, human PBMC
T1 construct: whole, on cells; also called CD3 on human T-cells

[4] = target: T1, human CD3; test: cell binding, human CD3, 50 nM SFA present
[5] = target: Folate receptor-alpha (FOLR1) (human) (UniProt P15328); test: summary table; FRα affinity over CD3 affinity
[6] = target: T1, human CD3; test: cell binding, human T-cells; set-up: Bmax: unit not given here
[7] = target: T2, cyno CD3 (cyno (cynomolgus monkey), UniProt Q95LI5 22-198); test: cell binding, cynomolgus T-cells
T2 construct: whole, on cells; also called CD3 on Cynomolgus T-cells

[8] = target: T1, human CD3; test: cell binding, human PBMC
[9] = target: Folate receptor-alpha (FOLR1) (human) (UniProt P15328); test: cell binding, SKOV-3 cells with 50 nM SFA; through the folate moiety
[10] = target: Folate receptor beta (human, UniProt P14207 17-230); test: cell-based or functional assay
[11] = target: T1, human CD3; test: cell binding, human PBMC, 20 nM SFA present
[12] = target: T1, human CD3; test: flow cytometry (MFI) on activated human PBMC, Fab in HEK293 culture medium, concentration not shown
Method: Testing for CD3 binding with activated human and cyno PBMC: To distinguish between the humanized anti-CD3 antibodies generated, binding to human CD3 was tested using activated human PBMCs (n=2). The activation of PBMCs and subsequent fluorescence-based CD3 binding assays were followed as described previously (see for example, Angew Chem Int Ed Engl, 52(46):12101-12104, 2013). […] The binding of the remaining 6 humanized antibodies to both human and cyno CD3 using activated human and cyno PBMCs, respectively, was titrated. […] The six (6) humanized anti-CD3 antibodies were obtained as follows: Fab1, Fab2 and Fab3 wildtype were generated by combination of LC ((vL1.2+CL); (SEQ.ID. NO:7)) and HC ((vH1.2+CH1); (SEQ.ID. NO:1)), ((vH1.1+CH1); (SEQ.ID. NO:2)) and ((vH1.0+CH1); (SEQ.ID. NO:3)) respectively. Fab4, Fab 5 and Fab6 wildtype were generated by combination of LC ((vL1.1+CL); (SEQ.ID. NO:8)) and HC ((vH1.2+CH1); (SEQ.ID. NO:1)), ((vH1.1+CH1); (SEQ.ID. NO:2)) and ((vH1.0+CH1); (SEQ.ID. NO:3)) respectively.

[13] = target: T1, human CD3; test: cell binding, activated human PBMC
[14] = target: T2, cyno CD3; test: flow cytometry (MFI), 11-point titration on cyno CD3 (activated cyno PBMC), HEK293 culture supernatant
Method: (§1) Screening for human and cyno CD3 binding: HEK293 culture supernatants were directly used to test for binding to human CD3 in the screening phase. In Round 1 experiment, initially 35 clones were tested for binding to human CD3 at three different protein concentrations, and 13 were selected for detailed binding assays to both human and cyno CD3. An 11-point binding titration curve was generated to both human (FIG. 4A) and cyno CD3 (FIG. 4B) for each clone. […] Similarly, 43 clones were screened in Round 2 experiment. After two-stage screening as described above for Round 1, 11 low-affinity variants were obtained, of which 4 are represented as shown in FIGS. 5A-5B

[15] = target: T1, human CD3; test: flow cytometry (MFI), 11-point titration on human CD3 (activated human PBMC), HEK293 culture supernatant
Method: as §1

T2 sequence (Q95LI5 22-198): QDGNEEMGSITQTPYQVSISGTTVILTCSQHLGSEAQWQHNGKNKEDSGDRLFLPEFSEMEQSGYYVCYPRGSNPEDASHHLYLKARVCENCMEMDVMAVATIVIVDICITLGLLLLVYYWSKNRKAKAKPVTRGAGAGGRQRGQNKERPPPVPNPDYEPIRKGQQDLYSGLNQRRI
T1 sequence (P07766 23-207): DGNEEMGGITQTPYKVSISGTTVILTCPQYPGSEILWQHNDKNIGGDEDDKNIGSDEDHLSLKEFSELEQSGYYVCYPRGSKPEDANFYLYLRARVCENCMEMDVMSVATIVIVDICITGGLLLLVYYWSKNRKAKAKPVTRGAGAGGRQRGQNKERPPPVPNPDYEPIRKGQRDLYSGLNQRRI
Sequence of Folate receptor-alpha (FOLR1) (human) (P15328 25-234): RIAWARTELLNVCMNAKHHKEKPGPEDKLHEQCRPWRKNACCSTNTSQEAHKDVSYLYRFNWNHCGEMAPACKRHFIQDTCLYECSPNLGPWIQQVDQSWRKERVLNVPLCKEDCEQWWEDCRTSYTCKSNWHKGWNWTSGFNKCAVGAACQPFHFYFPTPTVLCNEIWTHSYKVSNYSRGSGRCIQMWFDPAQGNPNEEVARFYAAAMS
Sequence of Folate receptor beta (P14207 17-230): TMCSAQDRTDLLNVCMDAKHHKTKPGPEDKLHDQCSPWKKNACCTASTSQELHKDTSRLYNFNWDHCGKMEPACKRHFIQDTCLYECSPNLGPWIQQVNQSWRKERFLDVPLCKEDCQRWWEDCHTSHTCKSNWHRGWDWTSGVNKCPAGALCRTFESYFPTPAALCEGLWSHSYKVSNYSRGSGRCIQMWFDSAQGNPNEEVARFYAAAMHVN

B1: Fab1-HK129-LL157-BiFolate (Fab, V domains shown)
VH: EVQLVESGGGLVQPGGSLRLSCAASGFTFNTYAMNWVRQAPGKGLEWVARIRSKYNNYATYYADSVKDRFTISRDDSKNILYLQMNSLKTEDTAVYYCVRHGNFGNSYVSWFAYWGQGTLVTVSS
VL: QAVVTQEPSLTVSPGGTVTLTCRSSTGAVTTSNYANWVQQKPGQAPRGLIGGTNKRAPGTPARFSGSLLGGKAALTLSGAQPEDEAEYYCALWYSNLWVFGGGTKLTVLG
modifications: pAF at LL157 (Kabat) conjugated to folate (oxime); pAF at HK129 (Kabat) conjugated to folate (oxime)
notes: From E. coli; carries two folates
[1]
  Bmax: 74400
  Kd: 0.85 nM
[2]
  FRα binding affinity: 19.8 nM
[3]
  CD3 binding affinity: 1.93 nM
[4]
  EC50: 2.37 nM
[5]
  Affinity ratio (FRα:CD3): 10
[6]
  Bmax: 24600
  Kd: 0.669 nM
[7]
  Bmax: 19600
  Kd: 1 nM
[8]
  EC50: 1.93 nM
  Fold increase binding (vs Fab1-HK129-Folate): 1.3 fold
[9]
  EC50: 19.8 nM
  Fold increase binding (vs Fab1-HK129-Folate): 2.2 fold

B2: Fab1-HK129-LL157-5KPEG-Folate (Fab, V domains shown)
VH: EVQLVESGGGLVQPGGSLRLSCAASGFTFNTYAMNWVRQAPGKGLEWVARIRSKYNNYATYYADSVKDRFTISRDDSKNILYLQMNSLKTEDTAVYYCVRHGNFGNSYVSWFAYWGQGTLVTVSS
VL: QAVVTQEPSLTVSPGGTVTLTCRSSTGAVTTSNYANWVQQKPGQAPRGLIGGTNKRAPGTPARFSGSLLGGKAALTLSGAQPEDEAEYYCALWYSNLWVFGGGTKLTVLG
modifications: pAF at LL157 (Kabat); 5K PEG-folate conjugated, and the label does not say at one site or both; pAF at HK129 (Kabat); 5K PEG-folate conjugated, and the label does not say at one site or both
[10]
  IC50, killing of human M2 macrophages with human T-cells, 50 nM folic acid: 0.112 nM

B3: Fab9-HK129-LL157-BiFolate-Bi5KPEG (Fab, V domains shown)
VH: EVQLVESGGGLVQPGGSLRLSCAASGFTFNTYAMNWVRQAPGKGLEWVGRIRSKYNNYATYYADSVKDRFTISRDDSKNSLYLQMNSLKTEDTAVYYCVRHGNFGNSYVSWFAYWGQGTLVTVSS
VL: QAVVTQEPSLTVSPGGTVTLTCRSSTGAVTTSNYANWFQQKPGQAPRGLIGGTNKRAPGVPARFSGSLLGGKAALTLSGAQPEDEAEYYCALWYSNLWVFGGGTKLTVLG
modifications: pAF at LL157 (Kabat) conjugated to a bifunctional linker carrying folate and 5K PEG (oxime); pAF at HK129 (Kabat) conjugated to a bifunctional linker carrying folate and 5K PEG (oxime)
[11]
  EC50: 340 nM

B4: Fab10-HK129-LL157-BiFolate-Bi5KPEG (Fab, V domains shown)
VH: EVQLVESGGGLVQPGGSLRLSCAASGFTFSTYAMNWVRQAPGKGLEWVARIRSKYNNYATYYADSVKDRFTISRDDSKNILYLQMNSLKTEDTAVYYCVRHGNFGNSYVSWFAYWGQGTLVTVSS
VL: QAVVTQEPSLTVSPGGTVTLTCRSSTGAVTTSNYANWFQQKPGQAPRGLIGGTNKRAPGVPARFSGSLLGGKAALTLSGAQPEDEAEYYCALWYSNLWVFGGGTKLTVLG
modifications: pAF at LL157 (Kabat) conjugated to a bifunctional linker carrying folate and 5K PEG (oxime); pAF at HK129 (Kabat) conjugated to a bifunctional linker carrying folate and 5K PEG (oxime)
[11]
  EC50: 6310 nM

B5: Fab1-HK129-LL157-Folate (Fab, V domains shown)
VH: EVQLVESGGGLVQPGGSLRLSCAASGFTFNTYAMNWVRQAPGKGLEWVARIRSKYNNYATYYADSVKDRFTISRDDSKNILYLQMNSLKTEDTAVYYCVRHGNFGNSYVSWFAYWGQGTLVTVSS
VL: QAVVTQEPSLTVSPGGTVTLTCRSSTGAVTTSNYANWVQQKPGQAPRGLIGGTNKRAPGTPARFSGSLLGGKAALTLSGAQPEDEAEYYCALWYSNLWVFGGGTKLTVLG
modifications: pAF at LL157 (Kabat); folate conjugated, and the label does not say at one site or both; pAF at HK129 (Kabat); folate conjugated, and the label does not say at one site or both
[10]
  IC50, killing of human M2 macrophages with human T-cells, 50 nM folic acid: 0.0012 nM

B6: humanized anti-CD3 Fab vH1.0 + vL1.0 (Fab, V domains shown)
VH: EVQLVESGGGLVQPGGSLRLSCAASGFTFNTYAMNWVRQAPGKGLEWVGRIRSKYNNYATYYADSVKDRFTISRDDSKNSLYLQMNSLKTEDTAVYYCVRHGNFGNSYVSWFAYWGQGTLVTVSS
VL: QAVVTQEPSLTVSPGGTVTLTCRSSTGAVTTSNYANWFQQKPGQAPRTLIYGTNKRAPWTPARFSGSLLGGKAALTLSGAQPEDEAEYYCALWYSNLWVFGGGTKLTVLG
notes: it has no Fab number; HEK293 supernatant; also called antibody with vL1.0 light chain and vH1.0
[12]
  binding result: no binding

B7: Fab20-HK129-Folate (Fab, V domains shown)
VH: EVQLVESGGGLVQPGGSLRLSCAASGFTFNTYAMHWVRQAPGKGLEWVARIRSKYNNYATYYADSVKDRFTISRDDSKNILYLQMNSLKTEDTAVYYCVRHGNFGNSYVSWFAYWGQGTLVTVSS
VL: QAVVTQEPSLTVSPGGTVTLTCRSSTGAVTTSNYANWVQQKPGQAPRGLIGGTNNRAPGTPARFSGSLLGGKAALTLSGAQPEDEAEYYCALWYSNLWVFGGGTKLTVLG
modifications: pAF at HK129 (Kabat) conjugated to folate (oxime)
[13]
  binding result: no binding (tested: 1000 nM)

B8: humanized anti-CD3 Fab vH1.2 + vL1.0 (Fab, V domains shown)
VH: EVQLVESGGGLVQPGGSLRLSCAASGFTFNTYAMNWVRQAPGKGLEWVARIRSKYNNYATYYADSVKDRFTISRDDSKNILYLQMNSLKTEDTAVYYCVRHGNFGNSYVSWFAYWGQGTLVTVSS
VL: QAVVTQEPSLTVSPGGTVTLTCRSSTGAVTTSNYANWFQQKPGQAPRTLIYGTNKRAPWTPARFSGSLLGGKAALTLSGAQPEDEAEYYCALWYSNLWVFGGGTKLTVLG
notes: it has no Fab number; HEK293 supernatant; also called antibody with vL1.0 light chain and vH1.2
[12]
  binding result: no binding

B9: Fab11-HK129-Folate (Fab, V domains shown)
VH: EVQLVESGGGLVQPGGSLRLSCAASGFTFSTYAMNWVRQAPGKGLEWVGRIRSKYNNYATYYADSVKDRFTISRDDSKNSLYLQMNSLKTEDTAVYYCVRHGNFGNSYVSWFAYWGQGTLVTVSS
VL: QAVVTQEPSLTVSPGGTVTLTCRSSTGAVTTSNYANWFQQKPGQAPRTLIYGTNKRAPWTPARFSGSLLGGKAALTLSGAQPEDEAEYYCALWYSNLWVFGGGTKLTVLG
modifications: pAF at HK129 (Kabat) conjugated to folate (oxime)
[13]
  binding result: no binding (tested: 1000 nM)

B10: Fab19-HK129-Folate (Fab, V domains shown)
VH: EVQLVESGGGLVQPGGSLRLSCAASGFTFNTYAMHWVRQAPGKGLEWVARIRSKYNNYATYYADSVKDRFTISRDDSKNILYLQMNSLKTEDTAVYYCVRHGNFGNSYVSWFAYWGQGTLVTVSS
VL: QAVVTQEPSLTVSPGGTVTLTCRSSTGAVTTSNYANWVQQKPGQAPRGLIGGTNKRAPGTPARFSGSLLGGKAALTLSGAQPEDEAEYYCALWYSNLWVFGGGTKLTVLG
modifications: pAF at HK129 (Kabat) conjugated to folate (oxime)
[13]
  binding result: no binding (tested: 1000 nM)

B11: Fab8 (vH2.2 / vL2.1), wild type from HEK293 (Fab, V domains shown)
VH: EVQLVESGGGLVQPGGSLRLSCAASGFTFNTYAMNWVRQAPGKGLEWVGRIRSKYNNYATYYADSVKDRFTISRDDSKNILYLQMNSLKTEDTAVYYCVRHGNFGNSYVSWFAYWGQGTLVTVSS
VL: QAVVTQEPSLTVSPGGTVTLTCRSSTGAVTTSNYANWFQQKPGQAPRGLIGGTNKRAPGVPARFSGSLLGGKAALTLSGAQPEDEAEYYCALWYSNLWVFGGGTKLTVLG
notes: HEK293 supernatant
[14]
  EC50 (read off the curve): ~6 nM

B12: Fab7 (vH2.3 / vL2.4), wild type from HEK293 (Fab, V domains shown)
VH: EVQLVESGGGLVQPGGSLRLSCAASGFTFNTYAMNWVRQAPGKGLEWVARIRSKYNNYATYYADSVKDRFTISRDDSKNILYLQMNSLKTEDTAVYYCARHGNFGNSYVSWFAYWGQGTLVTVSS
VL: QAVVTQEPSLTVSPGGTVTLTCRSSTGAVTTSNYANWVQQKPGQAPRGLIGGTNKRAPWVPARFSGSLLGGKAALTLSGAQPEDEAEYYCALWYSNLWVFGGGTKLTVLG
notes: HEK293 supernatant
[15]
  EC50 (read off the curve): ~2 nM
[14]
  EC50 (read off the curve): ~2 nM

B13: Fab9 (vH1.0 / vL2.1), wild type from HEK293 (Fab, V domains shown)
VH: EVQLVESGGGLVQPGGSLRLSCAASGFTFNTYAMNWVRQAPGKGLEWVGRIRSKYNNYATYYADSVKDRFTISRDDSKNSLYLQMNSLKTEDTAVYYCVRHGNFGNSYVSWFAYWGQGTLVTVSS
VL: QAVVTQEPSLTVSPGGTVTLTCRSSTGAVTTSNYANWFQQKPGQAPRGLIGGTNKRAPGVPARFSGSLLGGKAALTLSGAQPEDEAEYYCALWYSNLWVFGGGTKLTVLG
notes: HEK293 supernatant
[15]
  EC50 (read off the curve): ~10 nM

B14: humanized anti-CD3 Fab vH1.1 + vL1.0 (Fab, V domains shown)
VH: EVQLVESGGGLVQPGGSLRLSCAASGFTFNTYAMNWVRQAPGKGLEWVARIRSKYNNYATYYADSVKDRFTISRDDSKNSLYLQMNSLKTEDTAVYYCVRHGNFGNSYVSWFAYWGQGTLVTVSS
VL: QAVVTQEPSLTVSPGGTVTLTCRSSTGAVTTSNYANWFQQKPGQAPRTLIYGTNKRAPWTPARFSGSLLGGKAALTLSGAQPEDEAEYYCALWYSNLWVFGGGTKLTVLG
notes: it has no Fab number; HEK293 supernatant; also called antibody with vL1.0 light chain and vH1.1
[12]
  binding result: no binding
